Experiment: soluble on expression in E. coli; label from the status in PepcDB or PDB records

Sequence	soluble on expression in E. coli
MSSGRNISCRMATRSCFFRLLQGVEMLRIADKTFDSHLFTGTGKFASSQLMVEAIRASGSQLVTLAMKRVDLRQHNDAILEPLIAAGVTLLPNTSGAKTAEEAIFAAHLAREALGTNWLKLEIHPDARWLLPDPIETLKAAETLVQQGFVVLPYCGADPVLCKRLEEVGCAAVMPLGAPIGSNQGLETRAMLEIIIQQATVPVVVDAGIGVPSHAAQALEMGADAVLVNTAIAVADDPVNMAKAFRLAVEAGLLARQSGPGSRSYFAHATSPLTGFLEASA	soluble
MSEANSNSEFQTFIEQENQKAAIQAAISKLTETCWDKCVGKPGSKLDRAESECIANCAERFLDSSSFIMQRLMKKQ	soluble
VVKRSRATRLSPSIWSGWESPQCRSIRARLLLPRGRSRPPNADCCWNQLAVTPDTRMPASSAAGRDAAAYDAWYDSPTGRPILATEVAALRPLIEVFAQPRLEIGVGTGRFADLLGVRFGLDPSRDALMFARRRGVLVANAVGEAVPFVSRHFGAVLMAFTLCFVTDPAAIFRETRRLLADGGGLVIGFLPRGTPWADLYALRAARGQPGYRDARFYTAAELEQLLADSGFRVIARRCTLHQPPGLARYDIEAAHDGIQAGAGFVAISAVDQAHEPKDDHPLESE	not soluble
EQAEAQLAELDLLASMFPGENELIVNDQLAVAELKDCIEKKTMEGRSSKVYFTINMNLDVSDEKMAMFSLACILPFKYPAVLPEITVRSVLLSRSQQTQLNTDLTAFLQKHCHGDVCILNATEWVREHASGYVSRDTSS	soluble
GSMAEGSAVSDPQHAARLLRALSSFREESRFCDAHLVLDGEEIPVQKNILAAASPYIRTKLNYNPPKDDGSTYKIELEGISVMVMREILDYIFSGQIRLNEDTIQDVVQAADLLLLTDLKTLCCEFLEGCIAAENCIGIRDFALHYCLHHVHYLATEYLETHFRDVSSTEEFLELSPQKLKEVISLEKLNVGNERYVFEAVIRWIAHDTEIRKVHMKDVMSALWVSGLDSSYLREQMLNEPLVREIVKECSNIPLS	soluble
EEPEHSYDNSWGMGYGSSNSRSYGSQNSRSYGSPRTPKLPKHSNKPAIALNVGDRVNHEKYGLGTVTKVDKMAPADSVTIDFGSSGTVRLMLIGSVPMEKL	not soluble
MPWQQQPIRYSADLEKPSPREQADIEKIMAKLLKNNERAYDKYKHGLRDAHAKSHAILRGELIVNEGLPPELAQGLFAEPRTYPVIARLSSTSGVRRSDKTRGVRGLGLKVLGVQGEKILPDDSSTNQDFVMVTHEDFLFADAHAYAGLGMITASLLARLSDQALWLGSGLLDLVSKAGIKLPDNLMVFVAPNRPILGLEFFSSAPFRHGDHVAKYRFAPASENVKALSGQLLPRNPAPEQHRDMIAEFFADQTAEFDFSAQLCTDPVAMPIEDAGKNWDKSISPYVSVAKIVFGPQNPYSALRRAYGDDVLAFNSWRGLAEHRPLGSINRLKKTVYESSADYRHRVNRIDRHEPVDISELPDLEHHHHHH	not soluble
MVIAYVDANLQTNRQTIYFDHDLNRNKYNTIQLKKLTMTQDSDSEYEIERIIDHVSFLEAYESFYGQNVKRFAAIFSEERFKRTKKPQLISNYFFLVKWLGYGNKEMTWEPESNIPDSVYLYEYKKLNNMVMNRMNLKVSLTFTSRRKGYTPPVILEELQERKPKPQFLNMSNMAITLNDNLNNGKFGIVPVPKYKKKFGQNVNYLKFGNEVYKMKNVSFKDSTNNDIDNRVQQHHHEDRSFLQSMIKHNNIVRMRDLFVSYNKLDETVNITSIYDWCHQNLRQQLNNEKVSWKKVCRDILNALSFIHPYGIHQGVSLDHIYYHKGGTYKLSHFNNFFFGKRIPAEKVKSDRVELAPRLYNLKFKLGRNSDIYALAIVLLQCHNKKFSFRVNPSSVMEIEEDIAKGMSAFENKDDRHFLKSLLRARLHVYHGSGHYRFTSSSLLHHPVLQEPTARSVECFYFHSMLASPMKEIIHYHANDKISDVLQRFISLYHTSQEAEDKKYIMMFTKDTSSCDSVVLLNSLENFERVVDIDLTIMKNTLLIAPIILPSPENENCQKFLIIYEQELGGCPIVIETPEVNAAKFAKQLKEYSVSHEYRNRRLGLFPKLPGGDQQENGGLPEFSHHVWQMQLESNDDTVIKNRFDIASEIEMPLSGEMLEWDDVAGIANYGEILRNNSDNTTSRRKRETCSSDELDEAHAKREKVD	not soluble
MSLDLGSNSFHMVIARVVDGAMQIIGRLKQRVHLADGLGPDNMLSEEAMTRGLNCLSLFAERLQGFSPASVCIVGTHTLRQALNATDFLKRAEKVIPYPIEIISGNEEARLIFMGVEHTQPEKGRKLVIDIGGGSTELVIGENFEPILVESRRMGCVSFAQLYFPGGVINKENFQRARMAAAQKLETLTWQFRIQGWNVAMGASGTIKAAHEVLMEMGEKDGIITPERLEKLVKEVLRHRNFASLSLPGLSEERKTVFVPGLAILCGVFDALAIRELRLSDGALREGVLYEMEGRFRHQDVRSRTASSLANQYHIDSEQARRVLDTTMQMYEQWREQQPKLAHPQLEALLRWAAMLHEVGLNINHSGLHRHSAYILQNSDLPGFNQEQQLMMATLVRYHRKAIKLDDLPRFTLFKKKQFLPLIQLLRLGVLLNNQRQATTTPPTLTLITDDSHWTLRFPHDWFSQNALVLLDLEKEQEYWEGVAGWRLKIEEESTPEIAAEGHHHHHH	not soluble
HKEDKEDFAELSGIAVPAEITAEDGTMFKEALLFTHRGLSGPSVLQISSFWKAGQKVSINLVPNEDIALLLERSLEKHPNQSLKNTLAKVLPKRLVEVLIERKELMDKPLKQFNPKELASVVERLENWSIAPNGTEGYRTAEVTLGGVDTDHLSSKTMECKNIKGLYFIGEVMDVTGWLGGYNFQWCWSSGFVAGQWV	not soluble
MGHHHHHHSHIAELYGAVLWGETVHLFMEAGEGGSVLEKLESCGPMREFEIIWVTKHVLKGLDFLHSKKVIHHDIKPSNIVFMSTKAVLVDFGLSVQMTEDVYFPKDLRGTEIYMSPEVILCRGHSTKADIYSLGATLIHMQTGTPPWVKRYPRSAYPSYLYIIHKQAPPLEDIADDCSPGMRELIEASLER	not soluble
MGSDKIHHHHHHMKPGFVDPVFDAQAVFRAALLATAYPGRVVPLDRTLTAPRPFSSATAALCLSLMDFETPAWLDNSLDCGELTAWLRFHCSLPLTETAGEARFAIVSDPANLPRLCELHPGDAEYPDRSTTLIIQVPSFTDGPTTTWTGPGVNGSIPVGIAGLPFWFWADWDLNSELYPRGIDVVFTSGNAVIGLPRTIKVEA	not soluble
MTGLLDGKRILVSGIITDSSIAFHIARVAQEQGAQLVLTGFDRLRLIQRITDRLPAKAPLLELDVQNEEHLASLAGRVTEAIGAGNKLDGVVHSIGFMPQTGMGINPFFDAPYADVSKGIHISAYSYASMAKALLPIMNPGGSIVGMDFDPSRAMPAYNWMTVAKSALESVNRFVAREAGKYGVRSNLVAAGPIRTLAMSAIVGGALGEEAGAQIQLLEEGWDQRAPIGWNMKDATPVAKTVCALLSDWLPATTGDIIYADGGAHTQLL	soluble
MYFMKSKNRFLLISLLSFSTSVFADVNLYGPGGPHVPLIKVAESFEKSQSKRVNITFGPQATWNDKAKKNADILFGASEHSALAIAEGHSERFSKFNIHPVFMREAIILVKKGNPKNIKGMADLLKPGIGIVVNDGAGVSNTSGTAVWEDSVGRMKNVEKLQAFRSNIHVFAPNSGSARKAFVDGEDIDAWITWVDWAIANPTIGDMVRMEDEYRIYRDFNVVLAKNPSSEAIDFFDYLTKSKDAEAIFQHYGWFK	not soluble
GAMSYSLYGTTLEQQYNKPLSDLLIRCINCQKPLSPEEKQRHLDKKQRFHNIRGRWTGRCMSCSRSSRTRRETQL	soluble
MIIVKNHKFKLDLLQNEANKEKFEGNTACSTAAYTLVREDASTGLTYTADISKVGNQISGEPAQRIKIREHRRIPKFDLPNLKVSKVYKLPLEASYAKGLLLLLIFCFGLSGCNTSKRLPYSHKYSYKELSKDDPHNLTYKGHYKVGKNYKIKGKTYKPHNPKSFTETGYASWYGGLKDGFHGKKTANGDRFNRNLLTAAHKTLPLPCLVKVTNKANNKAVILMVNDRGPFKKNRIIDVSQRAAEILAFKNQGITKVKIEYLPNETEKFLKNINLKKPQSKTLAKNSKKSSSNKVTNNNKCSVNCHIKLINLKYKLAVTP	soluble
MGSDKIHHHHHHMKEYDKLSIRLVQILSKFNNGESLSAQELAQEFNVDTRTIQRDLNERLTFMPIKKENGRYVLESFALGKLSFKDIQNFATLSGIAELYPKLDQGFIVDLLSHRVNKVLMVKNEGFQKVDYELFKDLSVAILKHNVLNFFYKEKERQIKPYKLVNYKGIWYLLGDENDKLKHFNLDKISKLRTKNENFIPNEKLEEQIQNDPNIWLGESKEVILKLDKNAKEYFFRKEILSNYQIIDKDETSYTLSTQVSYEDEILHLVKQWIPYIKILAPIELKIRLEDILKSYLNNLSK	not soluble
MSKLLVVKAHPLTKEESRSVRALETFLASYRETNPSDEIEILDVYAPETNMPEIDEELLSAWGALRAGAAFETLSENQQQKVARFNELTDQFLSADKVVIANPMWNLNVPTRLKAWVDTINVAGKTFQYTAEGPKPLTSGKKALHIQSNGGFYEGKDFASQYIKAILNFIGVDQVDGLFIEGIDHFPDRAEELLNTAMTKATEYGKTF	soluble
MGSDKIHHHHHHMSLLINLSFILTKPTGTTTYAFNLLPHLKPLQPTLLTSQYFPNYNSYQTPVNQTSEQGIKGHLRRLRWTQFKLPKIYNNLKSSLLFSPLPEAPLYTNCRFVITSFDMIPLRFPKRFSPLIPYHRYYTPQVLKQAQHIICISQTTAEDITNFYGIPANKITPILLAYDRTHFRPLNLATRNYFLYIGRQEPYKNIQRLLAAFAALPNHKDYELWLVGPSDLRYTPTLKTQVEELSITNQVKFLDYVPYSELPKIINEAIALVFPSLWEGFGLPVLEAMACGTPVITSNLSSLPEVAGDAAILIDPYNTVEITEAMQVIATNSALRSHLSSQGIIHCQQFSWEKTAKATAEVLSRYM	not soluble
MSLELSPTYQTERFTKFSDTLKEFKIEQNNEQNPIDPFNIIREFRSAAGQLALDLANSGDESNVISSKDWELEARFWHLVELLLVFRNADLDLDEMELHPYNSRGLFEKKLMQDNKQLYQIWIVMVWLKENTYVMERPKNVPTSKWLNSITSGGLKSCDLDFPLRENTNVLDVKDKEEDHIFFKYIYELILAGAIDEALEEAKLSDNISICMILCGIQEYLNPVIDTQIANEFNTQQGIKKHSLWRRTVYSLSQQAGLDPYERAIYSYLSGAIPNQEVLQYSDWESDLHIHLNQILQTEIENYLLENNQVGTDELILPLPSHALTVQEVLNRVASRHPSESEHPIRVLMASVILDSLPSVIHSSVEMLLDVVKGTEASNDEGHHHHHH	not soluble
MATIRIHDEANTTIENQEEVASFLDSQEVIYEQWDITRLPEHLSEKYDLTEEEKQQILDTFETEIKDISTRRGYKAQDVISLSDSNPKLDELLENFKREHHHTDDEVRFIVSGHGIFVIQGQDGTFFDVRLNPGDLISVPENIRHYFTLQEDRKVVAVRIFVTTEGWVPIYEKDSVNQLEHHHHHH	not soluble
MKHLNFILAGLFFLCGLCCRAQVLPLEENVVLNTKEGQIKGKLLLPGGVKTCPVVLIIAGSGPTDMDGNSAIGNLRNNSLKFLAEGLAANGIASLRFDKRGIGTSASAGKEEAKLRFEDYVNDVTGWIDYLAKEKRFTTITVAGHSEGALIGMLACQNRPKVKGYISVAGAGRPAYEIIEAQVAAQQNPEAVRKEVASINGSLKNGKEVSDVPAYLQSLYRASVQPYLISWFKYNPRTVIASVKVPVLIVQGKNDIQVSVEDAELLKKGCPAAELLLIDKMNHVLKDCESKAVQQQMLTYGNPSLPVNSTLIASVSTFVKKLK	not soluble
MESPNMNQPKINSTAGCALPPPNEMILKWAAERPNEVYLKQIINRQFVEFTYAEVADQALKLVSALRGLGIQPGDKVALVSKNCAE	not soluble
